Reference: patent US20250049914A1, “STEROID ACID-PEPTIDE BASED INTRACELLULAR CARGO DELIVERY” (DEFENCE THERAPEUTICS INC., priority 2021, published 2025)
Entries after “also recorded” stand apart in the source; their conditions may differ. Where a SMILES comes first, the peptide text is derived from it. The star is where a group is joined. Cholyl = C[C@H](CCC(=O)*)[C@H]1CC[C@H]2[C@@H]3[C@H](O)C[C@@H]4C[C@H](O)CC[C@]4(C)[C@H]3C[C@H](O)[C@]12C

What was measured:
EL4 cells = experiment: Cytochrome C cytosolic delivery, cell death (annexin V binding) by flow cytometry; type: cell-based
Method: Cytochrome C is a protein that is normally entrapped in the mitochondria but its release into the cytosol in known to induce cell death. An experiment was performed in which EL4 cells were incubated with recombinant cytochrome C either alone (FIG. 8A) or mixed with CA-SV40 NLS (47 μM) (FIG. 8B). Successful delivery of cytochrome C to the cytosol in its active form was assessed by measuring cell death (annexin V binding) via flow cytometry.

DC2.4 cells = experiment: eGFP-Gal3 assessment of damaged endosomes by microscopy; type: cell-based, murine; conditions: 0.1 mg/mL cargo, 3 h, 37° C.
Method: For this assay, 15×10^3 DC2.4 cells were seeded on a sterile cover slide in a 24-well plate. Two days following transfection of DC2.4 cells with the eGFP-hGal3 mammalian expression vector, 0.1 mg/mL of cargo was added to cells then incubated for 3 h at 37° C. The cells were then washed twice to remove excess protein prior to being mounted on a slide. The slides were viewed by fluorescent microscopy (Nikon, Eclipse™ Ti2-U) and the results analyzed using the ImageJ™ software.
A GFP-galectin-3 (GFP-Gal3) based detection system was utilized to explore the effect on endosomal membranes following intracellular delivery of steroid acid-peptide-conjugated cargoes. […] When expressed under normal conditions, Gal3 is evenly distributed across the cytosol but disruption of endosomal membranes allows Gal3 to access and bind luminal glycoproteins. We thus transiently transfected the murine dendritic cell line DC2.4 with a construct expressing Gal3 fused to enhanced green fluorescent protein (eGFP-Gal3). Two days later, DC2.4 cells were incubated with 0.1 mg/mL of either unconjugated OVA cargo or [CA-SV40]-OVA conjugated cargo for 3 h at 37° C. and the cells were observed by fluorescent microscopy.

[1] = Intrinsic tryptophan fluorescence (ITF) after thermal stress; type: physicochemical; conditions: 80° C., ten minutes, 0.8 mg/mL in PBS
Method: An Applied Photophysics (Leatherhead, Surrey, UK) Chirascan™ Q100 circular dichroism (CD) spectrometer was used for intrinsic tryptophan fluorescence (ITF) analysis and a VWR digital heatblock (Radnor, PA) was used for dry block temperature incubations. The Chirascan™ Q100 autosampler rack cooling system was used for all 4° C. incubations. Data was analyzed using MATLAB™ software (Natick, MA). Briefly, samples were removed from storage at −20° C. and allowed to equilibrate to room temperature. Samples were then diluted to 0.8 mg/mL in PBS from stock concentrations in the range of 4 to 5 mg/mL. Diluted samples were then analyzed for ITF without exposure to thermal stress (Native) or after ten minutes of thermal stress by dry block incubation. An aliquot of each diluted sample was incubated at 4° C., a second aliquot was incubated at 37° C., while a third aliquot was incubated at 80° C. BSA, diluted to 0.8 mg/mL, was included with the samples under each of the thermal conditions described above. All samples were re-equilibrated to room temperature after incubation. ITF Analysis was performed in […] by excitation at 280 nm with an emission scan range of 200-600 nm with a bandwidth of 1.0 nm, a Time-per point of 1 s, and a Step of 0.5. The triplicate spectra were blank subtracted, averaged, and converted from units of mdeg to relative fluorescence intensity using MATLAB software. […]

WT MSCs = experiment: Antigen cross-presentation assay on wild-type MSCs with B3Z cells; type: cell-based, mouse; conditions: WT MSCs pulsed with OVA with or without conjugate
Method: In order to generate Bone marrow (BM)-derived mouse MSCs, the femurs of 6-8-week-old female Balb/c or C57BL/6 mice were isolated and flushed with Alpha Modification of Eagle's Medium (AMEM) supplemented with 10% FBS and 50 U/mL Penicillin-Streptomycin in a 10 cm cell culture dish, then incubated at 37° C. Two days later, non-adherent cells were removed and the media replaced every 3 to 4 days until plastic-adherent cells reached 80% confluency. The generated cells were detached using 0.05% trypsin and expanded until a uniform MSC population was obtained. The generated MSCs were validated for their innate phenotype by flow-cytometry for the expression of CD44, CD45, CD73, and CD90. The cells were frozen in liquid nitrogen until use.
To assess cross-presentation assay, 25×10^3 cells MSCs were seeded per well in 24-well plate then pulsed with steroid acid peptide-conjugated for 6 h admixed with OVA. At the end of the pulsing period, the cells were washed to remove excess antigen then 5×10^4 B3Z cells. The cells were incubated for 17-19 hours prior to their lysis and incubation for another 4-6 hours at 37° C. with a CPRG solution. The optical density signal was detected at wavelength 570 using a SynergyH1™ microplate reader (Biotek, Winooski, VT, United States).
To determine whether a similar effect occurs in wild type (WT) (i.e., non-engineered) MSCs, BM-derived MSCs (Example 1) were used instead in the same cross presentation assay with B3Z responder cells.

[2] = system: primary bone marrow-derived DCs; experiment: DQ OVA intracellular degradation/processing, flow cytometry; type: cell-based, mouse; conditions: primary BMDCs, six hours
Method: Mouse bone marrow derived DCs (BMDCs) were generated by flushing the whole marrow from mouse femurs using RPMI™ 1640 supplemented with 10% fetal bovine serum (FBS), 50 U/mL Penicillin-Streptomycin, 2 mM L-glutamine, 10 mM HEPES, 1% MEM Non-essential Amino Acids, 1 mM Sodium Pyruvate, 0.5 mM beta-mercaptoethanol. Following red blood cell lysis, cells were then cultured in media supplemented with 50 ng/mL murine recombinant GM-CSF. The media was changed on days 2, 4, 6 and 8. On day 9, the media was replaced to include recombinant murine GM-CSF and LPS from Escherichia coli 0111 (1 ng/mL) to stimulate DC maturation. Mature DCs were assessed by flow cytometry for their surface expression of CD3, CD19, NK1.1, CD11c, CD80, CD86, and I-A^b. To evaluate OVA degradation/processing, cells were incubated with 10 µg/mL DQ™ OVA (with or without steroid acid-peptide modification) at 37° C. 30 minutes later, cells were washed, and regular media was added. […] Fluorescence was monitored by analyzing the cells by flow cytometry. […] Briefly, while a strong fluorescence quenching effect is observed when the DQ™ OVA substrate remains intact, hydrolysis of DQ™ OVA into single dye-labeled peptides by proteases relieves this quenching, thereby producing brightly fluorescent products. […] Cells were then collected and fluorescence was monitored by flow cytometry.

CC(C)[C@H](NC(=O)[C@H](CCCCN)NC(=O)[C@H](CCCNC(=N)N)NC(=O)[C@H](CCCCN)NC(=O)[C@H](CCCCN)NC(=O)[C@H](CCCCN)NC(=O)[C@@H]1CCCN1C(=O)CNC(=O)[C@H](Cc1ccc(O)cc1)NC(=O)CNC(=O)[C@H](CS)NC(=O)CC[C@@H](C)[C@H]1CC[C@H]2[C@@H]3[C@H](O)C[C@@H]4C[C@H](O)CC[C@]4(C)[C@H]3C[C@H](O)[C@]12C)C(=O)NCC(=O)NCC(=O)O [CA-SV40] (Cholyl-CGYGPKKKRKVGG-OH)
cell death, conjugate alone (EL4 cells; CA-SV40 NLS conjugate alone): 19%

cytochrome C
cell death, cytochrome C alone (EL4 cells; recombinant cytochrome C alone): did not trigger cell death

B1: OVA: albumin from chicken egg white, unconjugated cargo/antigen (protein, UniProt P01012 2-386, looked up)
Ovalbumin: GSIGAASMEFCFDVFKELKVHHANENIFYCPIAIMSALAMVYLGAKDSTRTQINKVVRFDKLPGFGDSIEAQCGTSVNVHSSLRDILNQITKPNDVYSFSLASRLYAEERYPILPEYLQCVKELYRGGLEPINFQTAADQARELINSWVESQTNGIIRNVLQPSSVDSQTAMVLVNAIVFKGLWEKAFKDEDTQAMPFRVTEQESKPVQMMYQIGLFRVASMASEKMKILELPFASGTMSMLVLLPDEVSGLEQLESIINFEKLTEWTSSNVMEERKIKVYLPRMKMEEKYNLTSVLMAMGITDVFSSSANLSGISSAESLKISQAVHAAHAEINEAGREVVGSAEAGVDAASVSEEFRADHPFLFCIKHIATNAVLFFGRCVSP
eGFP-Gal3 marker pattern (endosomal membrane disruption) (DC2.4 cells): remained cytosolic; also recorded: diffuse cytosolic pattern | ITF spectral change after thermal stress (unfolding) [1]: complete denaturation | OVA cross presentation by WT MSCs (B3Z) (WT MSCs): poorly cross presented

B2: [CA-SV40]-DQ™ OVA: DQ OVA conjugated with a molar excess of CA-SV40 NLS steroid acid-peptide moieties (conjugate, UniProt P01012 2-386, looked up)
Ovalbumin: B1 Ovalbumin
modifications: DQ fluorophore label; CA-SV40 NLS conjugates
notes: DQ OVA conjugated with a molar excess of CA-SV40 NLS steroid acid-peptide moieties
DQ OVA fluorescence (intracellular degradation/processing) [2]: sharp increase

B3: [CA-SV40]-OVA: OVA covalently conjugated to CA-SV40 NLS moieties via SM(PEG)4 cross-linker (conjugate, UniProt P01012 2-386, looked up)
Ovalbumin: B1 Ovalbumin
modifications: CA-SV40 NLS peptides via SM(PEG)4
notes: OVA covalently conjugated to CA-SV40 NLS moieties via SM(PEG)4 cross-linker
eGFP-Gal3 marker pattern (endosomal membrane disruption) (DC2.4 cells): became punctate; also recorded: punctate pattern

B4: DQ™ OVA: fluorogenic substrate DQ ovalbumin (protein, UniProt P01012 2-386, looked up)
Ovalbumin: B1 Ovalbumin
modifications: DQ fluorophore label
notes: fluorogenic substrate DQ ovalbumin
DQ OVA fluorescence (intracellular degradation/processing) [2]: not observed

B5: 50×-cOVA: OVA conjugated with a 50× molar excess of CA-SV40 NLS, about eight moieties per OVA (conjugate, UniProt P01012 2-386, looked up)
Ovalbumin: B1 Ovalbumin
modifications: about eight CA-SV40 NLS conjugates
notes: OVA conjugated with a 50× molar excess of CA-SV40 NLS, about eight moieties per OVA
ITF spectral change after thermal stress (unfolding) [1]: partial reduction in peak intensity
